The values that follow come from article doi:10.1101/2025.11.18.689095 (bioRxiv, 2025).

Where no end group is shown, it is not given here.

Sequences and labels used below:
B1: human Tom70 (residues 108–608) (domain or fragment)
chain: MNSLDRAQAAKNKGNKYFKAGKYEQAIQCYTEAISLCPTEKNVDLSTFYQNRAAAFEQLQKWKEVAQDCTKAVELNPKYVKALFRRAKAHEKLDNKKECLEDVTAVCILEGFQNQQSMLLADKVLKLLGKEKAKEKYKNREPLMPSPQFIKSYFSSFTDDIISQPMLKGEKSDEDKDKEGEALEVKENSGYLKAKQYMEEENYDKIISECSKEIDAEGKYMAEALLLRATFYLLIGNANAAKPDLDKVISLKEANVKLRANALIKRGSMYMQQQQPLLSTQDFNMAADIDPQNADVYHHRGQLKILLDQVEEAVADFDECIRLRPESALAQAQKCFALYRQAYTGNNSSQIQAAMKGFEEVIKKFPRCAEGYALYAQALTDQQQFGKADEMYDKCIDLEPDNATTYVHKGLLQLQWKQDLDRGLELISKAIEIDNKCDFAYETMGTIEVQRGNMEKAIDMFNKAINLAKSEMEMAHLYSLCDAAHAQTEVAKKYGLKPPTL
notes: human Tom70 (translocase of outer mitochondria membrane 70), residues 108-608; N-terminal Avi tag, His6 tag, (GGS)5 linker and TEV site removed by TEV protease; also called hTom70; free Tom70; source: E. coli BL21 (DE3), purified (Ni-NTA, TEV cleavage, second Ni column, SEC); not shown: Avi, N-terminal, cleaved; His6, N-terminal, cleaved

Conditions in all cases: both partners purified
Assay [1] has as its target T1, human Hsp90α (residues 1–732), full-length (human, UniProt P07900 1-732).
T1 construct: human Hsp90α, residues 1-732; also called full-length Hsp90; heat shock protein 90; source: E. coli BL21 Star (DE3) pLysS, purified (Ni-INDIGO, TEV cleavage, second Ni-INDIGO, HiPrep Q); not shown: Avi, N-terminal, cleaved; His6, N-terminal, cleaved
Briefly: ITC; Tom70 (400 μM), Tom70:Orf9b_(Helix) complex (400 μM), Tom70:Orf9b complex (500 μM) or truncation mutant complexes titrated into Hsp90 (20 μM); 20°C; 20 mM sodium phosphate pH 8, 150 mM NaCl, 2 mM TCEP, 10% glycerol; 1:1 binding model. (In general: ITC needs no label: the signal is the heat of the interaction.)

The target in assay [2] is T2, biotinylated human Hsp90α (residues 1–732), tags not cleaved (human, UniProt P07900 1-732, biotin (enzymatic protein biotinylation kit)).
T2 construct: human Hsp90α, residues 1-732; N-terminal Avi tag, His6 tag, (GGS)5 linker and TEV site remain on the chain; held on streptavidin probes; also called biotinylated Hsp90; surface-immobilized Hsp90; source: E. coli BL21 Star (DE3) pLysS, purified (Ni-INDIGO, HiPrep Q; no TEV cleavage), enzymatically biotinylated; not shown: Avi, N-terminal, kept; His6, N-terminal, kept
Nature of the assay: BLI + ITC; kon estimated indirectly as koff from BLI (immobilised biotinylated Hsp90) divided by KD from ITC (untagged Hsp90).

The target of assay [3] is T1, human Hsp90α (residues 1–732), …. Briefly: NMR titration.
The target in assay [4] is B1. Briefly: ITC; Hsp90_(EEVD) (400–500 μM) titrated into Tom70 or its complexes (30 μM) in the cell; 20°C; 20 mM sodium phosphate pH 8, 150 mM NaCl, 2 mM TCEP, 10% glycerol; 1:1 binding model.

The molecule B1 returned a Kd in assay [1] of 3000 nM. In assay [2], the kon is 500000 M⁻¹ s⁻¹.

B2: ^19F-labeled Tom70 (5-fluoro-tryptophan, residues 108–608) (domain or fragment)
chain: MNSLDRAQAAKNKGNKYFKAGKYEQAIQCYTEAISLCPTEKNVDLSTFYQNRAAAFEQLQKWKEVAQDCTKAVELNPKYVKALFRRAKAHEKLDNKKECLEDVTAVCILEGFQNQQSMLLADKVLKLLGKEKAKEKYKNREPLMPSPQFIKSYFSSFTDDIISQPMLKGEKSDEDKDKEGEALEVKENSGYLKAKQYMEEENYDKIISECSKEIDAEGKYMAEALLLRATFYLLIGNANAAKPDLDKVISLKEANVKLRANALIKRGSMYMQQQQPLLSTQDFNMAADIDPQNADVYHHRGQLKILLDQVEEAVADFDECIRLRPESALAQAQKCFALYRQAYTGNNSSQIQAAMKGFEEVIKKFPRCAEGYALYAQALTDQQQFGKADEMYDKCIDLEPDNATTYVHKGLLQLQWKQDLDRGLELISKAIEIDNKCDFAYETMGTIEVQRGNMEKAIDMFNKAINLAKSEMEMAHLYSLCDAAHAQTEVAKKYGLKPPTL
modifications: 5-fluoro-tryptophan at W169 and W523
notes: human Tom70, residues 108-608; also called ^19F Tom70; 5F-Trp Tom70; source: E. coli BL21(DE3) in M9 media supplemented with 5-fluoro-tryptophan, purified as unlabeled Tom70; not shown: Avi, N-terminal, cleaved; His6, N-terminal, cleaved
Take B2: the binding result in assay [3] was “binds”.

B3: Hsp90_(EEVD) peptide (peptide)
peptide: YDTSRMEEVD-OH
notes: tyrosine added to aid with quantification; C-terminal residues 724-732 of human Hsp90α; 10 residues: an added N-terminal Tyr and nine Hsp90 residues; source: synthetic peptide (LifeTein)
Take B3: the “fold lower affinity than full-length Hsp90 for free Tom70” value in assay [4] is 4 fold.

Usually Kd stands for the equilibrium constant for the complex coming apart. A lower Kd goes with a tighter complex. One may read the kon as a measure of how fast the partners come together.
